Assay results published in the supplement of paper PMC10567573.

B1: FAM50A (parent)
chain: KKREKQREQMEQMKQRIAEENIMK

Variants of: B1
Assay: protein stability index of a GFP-peptide fusion (GPS, HEK-293T) (PSI 1-6); higher = more stable
Conditions: c terminus: a fixed tail appended
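Note: lentivirally expressed fusions sorted by FACS into six bins by GFP to DsRed ratio, PSI derived from sequencing read proportions per bin multiplied by bin number.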

Row | Variant | protein stability index
1 | KKREKQREQMEQMKQDIAEENIMK [R16D] | 5.56
2 | KKREKQREQMEQMKQEIAEENIMK [R16E] | 5.53
3 | KKREKQREQMEQMKQFIAEENIMK [R16F] | 4.52
4 | KKREKQREQMEQMKQGIAEENIMK [R16G] | 5.32
5 | KKREKQREQMEQMKQHIAEENIMK [R16H] | 5.09
6 | KKREKQREQMEQMKQIIAEENIMK [R16I] | 4.71
7 | KKREKQREQMEQMKQKIAEENIMK [R16K] | 4.83
8 | KKREKQREQMEQMKQLIAEENIMK [R16L] | 4.51
9 | KKREKQREQMEQMKQMIAEENIMK [R16M] | 4.89
10 | KKREKQREQMEQMKQNIAEENIMK [R16N] | 4.67
11 | KKREKQREQMEQMKQPIAEENIMK [R16P] | 5.19
12 | KKREKQREQMEQMKQQIAEENIMK [R16Q] | 4.97
13 | KKREKQREQMEQMKQSIAEENIMK [R16S] | 5.52
14 | KKREKQREQMEQMKQTIAEENIMK [R16T] | 5.01
15 | KKREKQREQMEQMKQVIAEENIMK [R16V] | 5.02
16 | KKREKQREQMEQMKQWIAEENIMK [R16W] | 3.94
17 | KKREKQREQMEQMKQYIAEENIMK [R16Y] | 5.15
18 | KKREKQREQMEQMKQRAAEENIMK [I17A] | 5.39
19 | KKREKQREQMEQMKQRCAEENIMK [I17C] | 4.37
20 | KKREKQREQMEQMKQRDAEENIMK [I17D] | 5.3
21 | KKREKQREQMEQMKQREAEENIMK [I17E] | 5.1
22 | KKREKQREQMEQMKQRFAEENIMK [I17F] | 5.12
23 | KKREKQREQMEQMKQRGAEENIMK [I17G] | 5.41
24 | KKREKQREQMEQMKQRHAEENIMK [I17H] | 5.02

Row | Variant | protein stability index
25 | KKREKQREQMEQMKQRKAEENIMK [I17K] | 4.25
26 | KKREKQREQMEQMKQRLAEENIMK [I17L] | 4.92
27 | KKREKQREQMEQMKQRMAEENIMK [I17M] | 4.87
28 | KKREKQREQMEQMKQRNAEENIMK [I17N] | 5.2
29 | KKREKQREQMEQMKQRPAEENIMK [I17P] | 5.52
30 | KKREKQREQMEQMKQRQAEENIMK [I17Q] | 5.44
31 | KKREKQREQMEQMKQRRAEENIMK [I17R] | 4.77
32 | KKREKQREQMEQMKQRSAEENIMK [I17S] | 5.3
33 | KKREKQREQMEQMKQRTAEENIMK [I17T] | 5.3
34 | KKREKQREQMEQMKQRVAEENIMK [I17V] | 4.87
35 | KKREKQREQMEQMKQRWAEENIMK [I17W] | 4.25
36 | KKREKQREQMEQMKQRYAEENIMK [I17Y] | 4.46
37 | KKREKQREQMEQMKQRICEENIMK [A18C] | 4.35
38 | KKREKQREQMEQMKQRIDEENIMK [A18D] | 5.35
39 | KKREKQREQMEQMKQRIEEENIMK [A18E] | 4.62
40 | KKREKQREQMEQMKQRIFEENIMK [A18F] | 4.84
41 | KKREKQREQMEQMKQRIGEENIMK [A18G] | 4.64
42 | KKREKQREQMEQMKQRIHEENIMK [A18H] | 4.19
43 | KKREKQREQMEQMKQRIIEENIMK [A18I] | 4.36
44 | KKREKQREQMEQMKQRIKEENIMK [A18K] | 3.97
45 | KKREKQREQMEQMKQRILEENIMK [A18L] | 4.72
46 | KKREKQREQMEQMKQRIMEENIMK [A18M] | 4.12
47 | KKREKQREQMEQMKQRINEENIMK [A18N] | 4.93
48 | KKREKQREQMEQMKQRIPEENIMK [A18P] | 4.79

Row | Variant | protein stability index
49 | KKREKQREQMEQMKQRIQEENIMK [A18Q] | 5.31
50 | KKREKQREQMEQMKQRIREENIMK [A18R] | 4.39
51 | KKREKQREQMEQMKQRISEENIMK [A18S] | 4.78
52 | KKREKQREQMEQMKQRITEENIMK [A18T] | 4.59
53 | KKREKQREQMEQMKQRIVEENIMK [A18V] | 4.69
54 | KKREKQREQMEQMKQRIWEENIMK [A18W] | 4.09
55 | KKREKQREQMEQMKQRIYEENIMK [A18Y] | 4.43
56 | KKREKQREQMEQMKQRIAAENIMK [E19A] | 4.63
57 | KKREKQREQMEQMKQRIACENIMK [E19C] | 3.9
58 | KKREKQREQMEQMKQRIADENIMK [E19D] | 4.33
59 | KKREKQREQMEQMKQRIAFENIMK [E19F] | 3.71
60 | KKREKQREQMEQMKQRIAGENIMK [E19G] | 4.78
61 | KKREKQREQMEQMKQRIAHENIMK [E19H] | 4.6
62 | KKREKQREQMEQMKQRIAIENIMK [E19I] | 2.92
63 | KKREKQREQMEQMKQRIAKENIMK [E19K] | 5.08
64 | KKREKQREQMEQMKQRIALENIMK [E19L] | 3.22
65 | KKREKQREQMEQMKQRIAMENIMK [E19M] | 4.09
66 | KKREKQREQMEQMKQRIANENIMK [E19N] | 4.34
67 | KKREKQREQMEQMKQRIAPENIMK [E19P] | 4.19
68 | KKREKQREQMEQMKQRIAQENIMK [E19Q] | 4.72
69 | KKREKQREQMEQMKQRIARENIMK [E19R] | 4.98
70 | KKREKQREQMEQMKQRIASENIMK [E19S] | 4.33
71 | KKREKQREQMEQMKQRIATENIMK [E19T] | 4.78
72 | KKREKQREQMEQMKQRIAVENIMK [E19V] | 3.47

Row | Variant | protein stability index
73 | KKREKQREQMEQMKQRIAWENIMK [E19W] | 3.66
74 | KKREKQREQMEQMKQRIAYENIMK [E19Y] | 4.38
75 | KKREKQREQMEQMKQRIAEANIMK [E20A] | 4.47
76 | KKREKQREQMEQMKQRIAECNIMK [E20C] | 4.53
77 | KKREKQREQMEQMKQRIAEDNIMK [E20D] | 4.85
78 | KKREKQREQMEQMKQRIAEFNIMK [E20F] | 3.79
79 | KKREKQREQMEQMKQRIAEGNIMK [E20G] | 4.34
80 | KKREKQREQMEQMKQRIAEHNIMK [E20H] | 4.39
81 | KKREKQREQMEQMKQRIAEINIMK [E20I] | 4
82 | KKREKQREQMEQMKQRIAEKNIMK [E20K] | 3.96
83 | KKREKQREQMEQMKQRIAELNIMK [E20L] | 3.84
84 | KKREKQREQMEQMKQRIAEMNIMK [E20M] | 3.79
85 | KKREKQREQMEQMKQRIAENNIMK [E20N] | 4.44
86 | KKREKQREQMEQMKQRIAEPNIMK [E20P] | 4.8
87 | KKREKQREQMEQMKQRIAEQNIMK [E20Q] | 4.17
88 | KKREKQREQMEQMKQRIAERNIMK [E20R] | 4.48
89 | KKREKQREQMEQMKQRIAESNIMK [E20S] | 3.37
90 | KKREKQREQMEQMKQRIAETNIMK [E20T] | 4.85
91 | KKREKQREQMEQMKQRIAEVNIMK [E20V] | 3.74
92 | KKREKQREQMEQMKQRIAEWNIMK [E20W] | 3.47
93 | KKREKQREQMEQMKQRIAEYNIMK [E20Y] | 3.62
94 | KKREKQREQMEQMKQRIAEEAIMK [N21A] | 4.73
